Reference: paper PMC11330476

Key:
[1] = biological target: PneKC without His tag, co-expressed with N-terminally His-tagged PneA (Streptococcus pneumoniae); experiment: negative-stain EM
[2] = biological target: T1, PneKC, wild type, N-terminally His-tagged, expressed without PneA (apo PneKC) (Streptococcus pneumoniae); experiment: negative-stain EM
[3] = biological target: T1, PneKC, wild type, N-terminally …; experiment: SEC
[4] = biological target: PneKC, wild type, N-terminal His7 tag, co-expressed with PneA from pQLinkN-PneKC-PneA (Streptococcus pneumoniae); experiment: SEC

## PneKC without His tag, co-expressed with N-terminally His-tagged PneA (enzyme)
[1]
  stoichiometry N: 2

B1: PneKC, wild type, N-terminally His-tagged, expressed without PneA (apo PneKC) (enzyme)
chain: MDYNFNLEHPFFFTNNDYSTDTSIKYQASLPFNWHEVMNNDEWVYQYPIGKFVERQGWKIHISSEYNSSHELLQDVAKICHEMRIPFKHLSTEDKFIMRNGKLVSRGFSGKFITCYPNQNELESVLQRLESALKQYNGPYILSDKRWDEAPIYLRYGVFRPSRDDEKKVAIDELIVGDEVVKDERLPVFKIPKGIVPPDFLNKWLDKKDKKQGDFPFIIDNAIRFSNSGGIYNARLKEDGKKIILKEARPYTGLGFDGTYSSEKLASECKALKILNEWSEAPKIYWHGKIWEHTFLGIEHMKGVPLNRWVTNNFPLYEVVDKTKDYLLRVSKIVEKLIDLTNKFHSENVYHQDLHLGNILVKDEDEISIIDWEQAVFSNDEKVVHKVAAPGFRAWRETLPSEIDWYGIRQIAHYLYMPLVTTSDLTYNYVSQTRIEGKKLFESLGYTREHIDYVESLLSYLDSKCPQIENISRKKVLKPMHEIRTIESEQDIQDFIIKLLRGFTLTYGQWRKEFQSRFFPVHYYGLNFNQGIAFSDLAILWSYQQLAKKVKNFKFDDYYEIRTQVINEAVNNFKKSSLSGLFDGKIGTIWLIYEFGEIDRAVELFTTHFIEIFENSQNKNLYSGQAGILLVGLYFLSKGEIDNKLGEEILIRLREYTLNYIENPETFCKVGASDVQSNDPYENFGGLLYGHAGVAWLFGEAYKLTGESIYKNGLELAVDKELVAYKVDSNNSLQYSQGHRLLPYLATGSAGLLLLINRNKEILSSKYLKYLTSLERATDVVFCVLPGLFNGFCGLEVANNIYSDIDDNFSGQKKLIEQLYRYLCVIEEGFVIAGDNGLKITTDIASGFAGVAIGLVSIMDNKLTILPQI
modifications: not checked
[2]
  stoichiometry N: 2
[3]
  stoichiometry N: 2

B2: PneKC, wild type, N-terminal His7 tag, co-expressed with PneA from pQLinkN-PneKC-PneA (enzyme)
chain: B1 chain
modifications: not checked
[4]
  stoichiometry N: 2
